Results on two molecules are retold here after US9808535B2, “Conjugates for protection from nephrotoxic active substances” (Merck Patent GmbH, priority 2013, dated 2017).

The conditions of series [1]: mouse, in vivo, iv.
For series [2] the following is noted: infusion, 740 to 900 mg/m^2 of body surface area; cited from earlier work.

Each structure is given as a SMILES string. Residues, ends and D or L forms follow the SMILES beside them. ξ: configuration not given here. *: point of attachment. Lipoyl(6ξ) = O=C(CCCCC1CCSS1)*

For `NCCCCC(NC(=O)C(CCC(=O)O)NC(=O)C(CCC(=O)O)NC(=O)C(CCC(=O)O)NC(=O)C(CCCCNC(=O)CCCCC1CCSS1)NC(=O)C(CCCCN)NC(=O)C(CCCCN)NC(=O)C(CCC(=O)O)NC(=O)C(CCC(=O)O)NC(=O)C(CCC(=O)O)NC(=O)C(CCCCNC(=O)CCCCC1CCSS1)NC(=O)C(CCCCN)NC(=O)C(CCCCN)NC(=O)C(CCC(=O)O)NC(=O)C(CCC(=O)O)NC(=O)C(CCC(=O)O)NC(=O)C(CCCCNC(=O)CCCCC1CCSS1)NC(=O)C(CCCCN)NC(=O)C(CCCCN)NC(=O)C(N)Cc1ccc(O)cc1)C(N)=O` (centres unmarked) [y(KKKe(lipoic acid)EEE)3K] (H-YKKK(Lipoyl(6ξ))EEEKKK(Lipoyl(6ξ))EEEKKK(Lipoyl(6ξ))EEEK-NH2; configuration not given here), the kidney specificity result in series [1] is “high kidney specificity”. Turning to `NCCCNCCSP(=O)(O)O` [Amifostin], the “arterial hypotension as severe side effect” value in series [2] was “In over half of patients”.
